According to patent publication US20230416329A1 (INSTITUTE OF MATERIA MEDICA CHINESE ACADEMY OF MEDICAL …, published 2023):
Bridge positions count the residues as written; N and C are the ends. Square brackets hold non-standard residues; d marks the D form. Ends that are not written are not given here. Hyp = O=C(O)[C@@H]1C[C@@H](O)CN1; hCys = N[C@@H](CCS)C(=O)O; Nle = CCCC[C@H](N)C(=O)O

B1: BT45 (peptide)
peptide: RCTKSIPPICF
modifications: disulfide 2-10 (inferred)
notes: also called truncated monocyclic SFTI-1 mutant
B2: EC50 (peptide)
peptide: SNGNAVEDGGLCTASIPPQCY
modifications: disulfide 12-20 (inferred)
notes: disulfide bond between the two Cys; peptide name, not a potency value

molecular target: bovine trypsin (bovine, UniProt P00760 24-246); test: trypsin inhibition, BApNA substrate
Description: The substrates N-succinyl-Ala-Ala-Pro-Phe-p-nitroaniline (AAPFpNA), Nα—Benzoyl-L-arginine-4-nitroaniline hydrochloride (BApNA) and N-succinyl-[…] (AAApNA) are used in competitive binding reaction to determine the inhibitory activities against α-chymotrypsin, bovine trypsin, and porcine pancreatic elastase, respectively. Experiments for α-chymotrypsin and bovine trypsin inhibition were measured in 20 mM CaCl₂, 50 mM Tris-HCl buffer (pH 7.8), and that for porcine elastase inhibition was measured in 50 mM Tris-HCl buffer (pH 8.0). The concentration of the peptide was measured using optical density (OD) at 280 nm. The Michaelis constant (Kₘ) of the enzyme hydrolysis substrate is calculated from the initial rate of substrate hydrolysis at 405 nm. The absorbance value of the substrate was measured at 405 nm after complete hydrolysis. All data were processed using nonlinear regression.
(1) Added a total 190 μL of reaction buffer (20 mM CaCl₂ and 50 mM Tris-HCl, pH 7.8) along with different concentrations of anti-trypsin peptides (BTs) into the pre-cooled 96-well plate, followed by preheating at 37° C., and spined down at 500 rpm for 5 min. Next added 10 μL of 1 μM trypsin, incubated at 37° C., and then spined down at 500 rpm for 10 min. Finally, added 5 μL of 50 mM BApNA, and mixed by centrifugation at 500 rpm for 1 min. […] The experiment was performed in triplicate. The blank control only contained the reaction buffer and the substrate as the minimum absorption value (Min OD_{405 nm}). The negative control only contained the reaction buffer, the enzyme and the substrate as the maximum absorption value (Max OD_{405 nm}). […] (2) In the reaction system of 205 μL, the final concentrations of trypsin and BApNA were 50 nM and 1.22 mM, respectively. [0456] (3) Data statistics

Chain of bovine trypsin (P00760 24-246): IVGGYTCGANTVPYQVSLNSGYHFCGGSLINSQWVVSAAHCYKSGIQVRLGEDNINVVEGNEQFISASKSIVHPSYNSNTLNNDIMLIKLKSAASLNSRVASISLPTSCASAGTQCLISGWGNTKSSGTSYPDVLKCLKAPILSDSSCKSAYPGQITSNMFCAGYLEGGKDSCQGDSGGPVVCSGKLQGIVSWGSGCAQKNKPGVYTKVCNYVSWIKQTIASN

First: CERATKSIPPICF (disulfide 1-12 (inferred)) [BT78]
Second: CQRATKSIPPICF (disulfide 1-12 (inferred)) [BT79]
The IC50 of the first is 1.7-fold lower: 0.03 µM for the first, 0.05 µM for the second.

First: RCTRSIPPHCW (disulfide 2-10 (inferred)) [BT61]
Second: B1
The IC50 of the first is 30-fold higher: 0.89 µM for the first, 0.03 µM for the second. The second is the more potent here.

RCTKSIPPHCF (disulfide 2-10 (inferred)) [BT62] and RCTKSIPPQCH (disulfide 2-10 (inferred)) [BT63] are within 1.5-fold of each other in IC50: 0.07 µM for the first, 0.09 µM for the second.

First: RCTKSNPPQCQ (disulfide 2-10 (inferred)) [BT64]
Second: RCTKSLPPQCS (disulfide 2-10 (inferred)) [BT65]
The IC50 of the first is 5.5-fold higher: 3.43 µM for the first, 0.62 µM for the second. The second is the more potent here.

ACTKSNPPQCR (disulfide 2-10 (inferred)) [BT68] and CGRATKSIPPIAFC (disulfide 1-14 (inferred)) [BT11] are within 1.5-fold of each other in IC50: 2.43 µM for the first, 2.2 µM for the second.

First: CGRATKSIPPQCY (disulfide 1-12 (inferred)) [BT12]
Second: CGRATKSIPPIAC (disulfide 1-13 (inferred)) [BT13]
The IC50 of the first is 3.7-fold lower: 8.46 µM for the first, 31.5 µM for the second.

Going from CGRATKSLPPACF (disulfide 1-12 (inferred)) [BT14] to CGAKGTKSIPPICFPD (disulfide 1-13 (inferred)) [BT2], the IC50 rises from 1.65 µM to 3.03 µM (1.8-fold). The first is the more potent here.

Compared with CGAKATKSIPPICFPD (disulfide 1-13 (inferred)) [BT3], GTCTRSIPPICNPN (disulfide 3-11 (inferred)) [BT23] is 2.7-fold higher in IC50: 0.68 µM for the first, 1.82 µM for the second.

Going from CGRATKS[Nle]PPICF (disulfide 1-12 (inferred)) [BT28] to [hCys]GRATKSIPPIAF[hCys] (disulfide 1-14) [BT29], the IC50 rises from 0.29 µM to 10.6 µM (37-fold). The first is the more potent here.

Compared with CGRATKSIPPIAFGC (disulfide 1-15 (inferred)) [BT32], [hCys]GRATKSIPPIAFG[hCys] (disulfide 1-15) [BT33] is 3.6-fold higher in IC50: 1.54 µM for the first, 5.57 µM for the second. The first is the more potent here.

CWTKSIPPKPC (disulfide 1-11 (inferred)) [BT36] was tested, and the IC50 was 4.65 µM.

Compared with CERATKSIPPICF (disulfide 1-12 (inferred)) [BT78], CQRATKSIPPICF (disulfide 1-12 (inferred)) [BT79] is 1.6-fold higher in Ki: 0.0064 µM for the first, 0.01 µM for the second. The first binds more tightly here.

Going from RCTRSIPPHCW (disulfide 2-10 (inferred)) [BT61] to B1, the Ki falls from 0.19 µM to 0.0064 µM (30-fold). The second binds more tightly here.

Compared with RCTKSIPPHCF (disulfide 2-10 (inferred)) [BT62], RCTKSIPPQCH (disulfide 2-10 (inferred)) [BT63] is 2-fold higher in Ki: 0.01 µM for the first, 0.02 µM for the second.

Going from RCTKSNPPQCQ (disulfide 2-10 (inferred)) [BT64] to RCTKSLPPQCS (disulfide 2-10 (inferred)) [BT65], the Ki falls from 0.73 µM to 0.13 µM (5.6-fold). The second binds more tightly here.

ACTKSNPPQCR (disulfide 2-10 (inferred)) [BT68] and CGRATKSIPPIAFC (disulfide 1-14 (inferred)) [BT11] are within 1.5-fold of each other in Ki: 0.52 µM for the first, 0.47 µM for the second.

Going from CGRATKSIPPQCY (disulfide 1-12 (inferred)) [BT12] to CGRATKSIPPIAC (disulfide 1-13 (inferred)) [BT13], the Ki rises from 1.8 µM to 6.7 µM (3.7-fold). The first binds more tightly here.

Compared with CGRATKSLPPACF (disulfide 1-12 (inferred)) [BT14], CGAKGTKSIPPICFPD (disulfide 1-13 (inferred)) [BT2] is 1.9-fold higher in Ki: 0.35 µM for the first, 0.65 µM for the second.

Compared with CGAKATKSIPPICFPD (disulfide 1-13 (inferred)) [BT3], GTCTRSIPPICNPN (disulfide 3-11 (inferred)) [BT23] is 2.8-fold higher in Ki: 0.14 µM for the first, 0.39 µM for the second. The first binds more tightly here.

First: CGRATKS[Nle]PPICF (disulfide 1-12 (inferred)) [BT28]
Second: [hCys]GRATKSIPPIAF[hCys] (disulfide 1-14) [BT29]
The Ki of the first is 38-fold lower: 0.06 µM for the first, 2.26 µM for the second.

Compared with CGRATKSIPPIAFGC (disulfide 1-15 (inferred)) [BT32], [hCys]GRATKSIPPIAFG[hCys] (disulfide 1-15) [BT33] is 3.6-fold higher in Ki: 0.33 µM for the first, 1.19 µM for the second. The first binds more tightly here.

CWTKSIPPKPC (disulfide 1-11 (inferred)) [BT36] showed a Ki of 0.99 µM.

molecular target: T1, porcine pancreatic elastase (porcine, UniProt P00772 27-266); test: elastase inhibition, Ki=IC50/(1+S/Km)
T1 construct: substrate AAApNA
T1 sequence (P00772 27-266 limits assumed): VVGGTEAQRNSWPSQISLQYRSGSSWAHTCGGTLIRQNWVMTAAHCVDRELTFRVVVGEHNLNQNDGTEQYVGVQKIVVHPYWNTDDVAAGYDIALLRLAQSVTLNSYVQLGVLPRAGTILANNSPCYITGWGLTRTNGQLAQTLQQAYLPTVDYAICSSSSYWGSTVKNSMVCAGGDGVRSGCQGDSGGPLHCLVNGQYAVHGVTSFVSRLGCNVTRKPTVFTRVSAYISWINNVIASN

First: LCTASIPPICQ (disulfide 2-10 (inferred), disulfide bond between the two Cys) [EC12]
Second: LCTASIPPQCY (disulfide 2-10 (inferred), disulfide bond between the two Cys) [EC1]
The Ki of the first is 3-fold lower: 0.11 µM for the first, 0.33 µM for the second. The first binds more tightly here.

Going from LCTLSIPPQCY (disulfide 2-10 (inferred), disulfide bond between the two Cys) [EC2] to YCTASIPPQCY (disulfide 2-10 (inferred), disulfide bond between the two Cys) [EC14], the Ki rises from 0.91 µM to 2.04 µM (2.2-fold). The first binds more tightly here.

LCTASIPPQCQ (disulfide 2-10 (inferred), disulfide bond between the two Cys) [EC18] and ICTASIPPQCQ (disulfide 2-10 (inferred), disulfide bond between the two Cys) [EC19] are within 1.5-fold of each other in Ki: 0.27 µM for the first, 0.33 µM for the second.

Compared with LCTASIPPICR (disulfide 2-10 (inferred), disulfide bond between the two Cys) [EC21], VCTASIPPICQ (disulfide 2-10 (inferred), disulfide bond between the two Cys) [EC22] is 40-fold lower in Ki: 4.37 µM for the first, 0.11 µM for the second.

Compared with ICTASIPPICQ (disulfide 2-10 (inferred), disulfide bond between the two Cys) [EC23], FCTASIPPICQ (disulfide 2-10 (inferred), disulfide bond between the two Cys) [EC24] is 9.1-fold higher in Ki: 0.07 µM for the first, 0.64 µM for the second.

LCTASNPPICQ (disulfide 2-10 (inferred), disulfide bond between the two Cys) [EC25] and YCTASIPPICQ (disulfide 2-10 (inferred), disulfide bond between the two Cys) [EC29] are within 1.5-fold of each other in Ki: 0.3 µM for the first, 0.26 µM for the second.

CGLATLSIPPICQ (disulfide 1-12 (inferred), disulfide bond between the two Cys) [EC7] and CGILTASIPPICQ (disulfide 1-12 (inferred), disulfide bond between the two Cys) [EC33] are within 1.5-fold of each other in Ki: 9.62 µM for the first, 7.58 µM for the second.

Compared with CAIATASIPPICQ (disulfide 1-12 (inferred), disulfide bond between the two Cys) [EC45], MCTASMPPQCH (disulfide 2-10 (inferred), disulfide bond between the two Cys) [EC26] is 2-fold lower in Ki: 13.4 µM for the first, 6.84 µM for the second.

Compared with ICTASYPPQCR (disulfide 2-10 (inferred), disulfide bond between the two Cys) [EC27], CGI[Nle]TASIPPICQ (disulfide 1-12 (inferred), disulfide bond between the two Cys) [EC32] is 2.5-fold higher in Ki: 2.44 µM for the first, 6.11 µM for the second.

ICTASI[Hyp]PICQ (disulfide 2-10 (inferred), disulfide bond between the two Cys) [EC47] and ICTASIP[Hyp]ICQ (disulfide 2-10 (inferred), disulfide bond between the two Cys) [EC48] are within 1.5-fold of each other in Ki: 0.11 µM for the first, 0.16 µM for the second.

QGADTPPVGGLCTASIPPQCY (disulfide 12-20 (inferred), disulfide bond between the two Cys) [EC49] and B2 are the same in Ki: 0.28 µM for the first, 0.28 µM for the second.

molecular target: T1, porcine pancreatic elastase; test: elastase inhibition, AAApNA substrate, OD405

First: LCTASIPPICQ (disulfide 2-10 (inferred), disulfide bond between the two Cys) [EC12]
Second: LCTASIPPQCY (disulfide 2-10 (inferred), disulfide bond between the two Cys) [EC1]
The IC50 of the first is 2.9-fold lower: 0.4 µM for the first, 1.17 µM for the second. The first is the more potent here.

First: LCTLSIPPQCY (disulfide 2-10 (inferred), disulfide bond between the two Cys) [EC2]
Second: YCTASIPPQCY (disulfide 2-10 (inferred), disulfide bond between the two Cys) [EC14]
The IC50 of the first is 2.2-fold lower: 3.19 µM for the first, 7.14 µM for the second. The first is the more potent here.

LCTASIPPQCQ (disulfide 2-10 (inferred), disulfide bond between the two Cys) [EC18] and ICTASIPPQCQ (disulfide 2-10 (inferred), disulfide bond between the two Cys) [EC19] are within 1.5-fold of each other in IC50: 0.96 µM for the first, 1.14 µM for the second.

First: LCTASIPPICR (disulfide 2-10 (inferred), disulfide bond between the two Cys) [EC21]
Second: VCTASIPPICQ (disulfide 2-10 (inferred), disulfide bond between the two Cys) [EC22]
The IC50 of the first is 38-fold higher: 15.3 µM for the first, 0.4 µM for the second. The second is the more potent here.

First: ICTASIPPICQ (disulfide 2-10 (inferred), disulfide bond between the two Cys) [EC23]
Second: FCTASIPPICQ (disulfide 2-10 (inferred), disulfide bond between the two Cys) [EC24]
The IC50 of the first is 8.9-fold lower: 0.25 µM for the first, 2.23 µM for the second. The first is the more potent here.

LCTASNPPICQ (disulfide 2-10 (inferred), disulfide bond between the two Cys) [EC25] and YCTASIPPICQ (disulfide 2-10 (inferred), disulfide bond between the two Cys) [EC29] are within 1.5-fold of each other in IC50: 1.05 µM for the first, 0.92 µM for the second.

CGLATLSIPPICQ (disulfide 1-12 (inferred), disulfide bond between the two Cys) [EC7] and CGILTASIPPICQ (disulfide 1-12 (inferred), disulfide bond between the two Cys) [EC33] are within 1.5-fold of each other in IC50: 33.7 µM for the first, 26.5 µM for the second.

Going from CAIATASIPPICQ (disulfide 1-12 (inferred), disulfide bond between the two Cys) [EC45] to MCTASMPPQCH (disulfide 2-10 (inferred), disulfide bond between the two Cys) [EC26], the IC50 falls from 47 µM to 23.9 µM (2-fold). The second is the more potent here.

Compared with ICTASYPPQCR (disulfide 2-10 (inferred), disulfide bond between the two Cys) [EC27], CGI[Nle]TASIPPICQ (disulfide 1-12 (inferred), disulfide bond between the two Cys) [EC32] is 2.5-fold higher in IC50: 8.53 µM for the first, 21.4 µM for the second.

ICTASI[Hyp]PICQ (disulfide 2-10 (inferred), disulfide bond between the two Cys) [EC47] and ICTASIP[Hyp]ICQ (disulfide 2-10 (inferred), disulfide bond between the two Cys) [EC48] are within 1.5-fold of each other in IC50: 0.4 µM for the first, 0.55 µM for the second.

QGADTPPVGGLCTASIPPQCY (disulfide 12-20 (inferred), disulfide bond between the two Cys) [EC49] and B2 are within 1.5-fold of each other in IC50: 0.99 µM for the first, 0.97 µM for the second.
